{"source": "paper PMC11587861", "about": "“A high-throughput search for intracellular factors that affect RNA folding identifies E. coli proteins PepA and YagL as RNA chaperones that promote RNA remodelling”", "key": {"PepA-H6": {"molecular_target": "T1, PepA-H6 (Escherichia coli, UniProt P68767 1-503)", "T1 sequence": "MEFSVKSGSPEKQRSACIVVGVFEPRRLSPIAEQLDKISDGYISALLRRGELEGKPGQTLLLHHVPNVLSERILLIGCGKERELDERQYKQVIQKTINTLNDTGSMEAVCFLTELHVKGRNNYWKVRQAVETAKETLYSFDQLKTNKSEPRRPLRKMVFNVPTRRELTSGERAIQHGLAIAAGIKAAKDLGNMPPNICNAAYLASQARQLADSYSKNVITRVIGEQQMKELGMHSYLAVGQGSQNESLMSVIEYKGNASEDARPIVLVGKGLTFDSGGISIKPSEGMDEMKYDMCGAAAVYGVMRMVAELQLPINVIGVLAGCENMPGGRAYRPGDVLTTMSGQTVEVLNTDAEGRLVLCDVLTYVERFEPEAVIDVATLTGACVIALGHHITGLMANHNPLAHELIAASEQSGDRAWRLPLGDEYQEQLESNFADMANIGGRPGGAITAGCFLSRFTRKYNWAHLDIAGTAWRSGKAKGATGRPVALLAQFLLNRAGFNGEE", "test": "filter binding; 75 mM Tris-HCl pH 7.5, 0.4 mM spermidine, 0.1 mM MgCl2, 50 mM NaCl, 0.5 mM EDTA, 0.25 mM DTT, 6% glycerol; 10 min at room temperature; 50 fmol RNA in 60 µL, protein 0-10 µM", "conditions": "protein: recombinant, tags: C-terminal His6, chain copies: 6, label: 5'-32P (printed as [31]P)"}, "YagL-H6": {"molecular_target": "T2, YagL-H6 (Escherichia coli, UniProt P77607 1-232)", "T2 sequence": "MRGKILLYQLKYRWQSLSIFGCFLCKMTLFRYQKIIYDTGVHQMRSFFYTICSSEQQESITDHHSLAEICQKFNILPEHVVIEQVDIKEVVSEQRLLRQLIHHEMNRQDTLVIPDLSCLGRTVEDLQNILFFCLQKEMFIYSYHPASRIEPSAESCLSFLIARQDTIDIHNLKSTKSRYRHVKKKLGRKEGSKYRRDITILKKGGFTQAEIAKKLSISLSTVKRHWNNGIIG", "test": "filter binding; 75 mM Tris-HCl pH 7.5, 0.4 mM spermidine, 0.1 mM MgCl2, 50 mM NaCl, 0.5 mM EDTA, 0.25 mM DTT, 6% glycerol; 10 min at room temperature; 50 fmol RNA in 60 µL, protein 0-10 µM", "conditions": "protein: recombinant, label: 5'-32P (printed as [31]P)"}}}
{"binder": "GCUCUAGAGCAUUAUGUUCAGAUAAGG (structured_RNA)", "note": "[hairpin]", "values": [{"measurement": "Kd", "setting": "PepA-H6; hairpin", "result": "600 ± 400", "unit": "nM"}, {"measurement": "Kd", "setting": "YagL-H6; hairpin", "result": "2.4 ± 0.3", "unit": "µM"}]}
{"binder": "CUGCUAGAGAUUUUCCACAU (ssRNA)", "note": "[21 R-]", "values": [{"measurement": "Kd", "setting": "PepA-H6; single strand", "result": "600 ± 300", "unit": "nM"}, {"measurement": "Kd", "setting": "YagL-H6; single strand", "result": "5 ± 1.2", "unit": "µM"}]}
{"binder": "AUGUGGAAAAUCUCUAGCAGU (ssRNA)", "note": "[21 R+]", "values": [{"measurement": "Kd", "setting": "PepA-H6; single strand", "result": "2000 ± 600", "unit": "nM"}, {"measurement": "Kd", "setting": "YagL-H6; single strand", "result": "4.5 ± 0.3", "unit": "µM"}]}
